This note sets out measurements from PMC6450724 (Molecular cell, 2019).

For orientation: stoichiometry N means the number of molecules, sites or subunits per partner or assembly.

Series [1] addresses DnaC (with DnaB^KAEA and M13 ssDNA) (Escherichia coli, UniProt P0AEF0). Kind of series: coupled pyruvate kinase/lactate dehydrogenase ATPase assay, A340. It counts as biochemical. The settings on record: DnaB K236A/E262A and M13 ssDNA present; 10 mM MgCl2, pH 7.5, 37 °C.
In series [2] the target is E. coli DnaB replicative helicase, wild type (E. coli) (UniProt P0ACB0). Nature of the series: cryo-EM structure.
Series [3] has the same target. Nature of the series: cryo-EM structure. The source holds these as a separate data set.
The series “cryo-EM structure” concerns the molecule itself. Nature of the series: cryo-EM structure.

Read-outs that look alike come from different tables or passages of the source.

On to `Nc1ncnc2c1ncn2[C@@H]1O[C@H](COP(=O)(O)OP(=O)(O)OP(=O)(O)O)[C@@H](O)[C@H]1O` [ATP], for which the Km entry in series [1] is reported as “DnaC follows apparent Michaelis-Menten behavior”. In the case of “E. coli DnaB replicative helicase, wild type (from UniProt P0ACB0 1-471) (enzyme)”, the stoichiometry N in series [2] and in series [3] was 6 each time.

B1: E. coli DnaC helicase loader, wild type (enzyme, UniProt P0AEF0 1-245, looked up)
chain: MKNVGDLMQRLQKMMPAHIKPAFKTGEELLAWQKEQGAIRSAALERENRAMKMQRTFNRSGIRPLHQNCSFENYRVECEGQMNALSKARQYVEEFDGNIASFIFSGKPGTGKNHLAAAICNELLLRGKSVLIITVADIMSAMKDTFRNSGTSEEQLLNDLSNVDLLVIDEIGVQTESKYEKVIINQIVDRRSSSKRPTGMLTNSNMEEMTKLLGERVMDRMRLGNSLWVIFNWDSYRSRVTGKEY
Consider B1, for which the “stoichiometry N” value in “cryo-EM structure” came out at 6.
